Source: paper PMC9162458

Experiments:
[1] = target: LiRAD51^ATPase (Leishmania infantum RAD51 ATPase domain, residues 134–386) (Leishmania infantum); experiment: fluorescence polarisation; competition: 5 nM Fluor-NCys-LiBRC1 probe with 500 nM LiRAD51^ATPase, GB1-LiBRC repeats in serial dilutions; KD estimated from the fitted IC50; 50 mM Tris pH 8.0, 150 mM NaCl, 100 mM Li2SO4, 1% BSA, 0.1% Tween-20
[2] = target: LiRAD51^ATPase (Leishmania infantum RAD51 ATPase domain, residues 134–386) (Leishmania infantum); experiment: ITC; LiBRC1 peptide in the syringe, LiRAD51^ATPase in the cell; 25°C; 20 mM Tris pH 8.0, 150 mM NaCl, 100 mM Li2SO4; single-site binding model
[3] = target: Fluor-NCys-LiBRC1 probe (Leishmania infantum); experiment: fluorescence polarisation; direct titration: LiRAD51^ATPase in two-fold serial dilutions into 5 nM Fluor-NCys-LiBRC1 probe; 50 mM Tris pH 8.0, 150 mM NaCl, 100 mM Li2SO4, 1% BSA, 0.1% Tween-20

Substance | Kd [1] [µM] | other results
GB1-LiBRC1-His8 (BRC repeat 1 of Leishmania infantum BRCA2 fused to GB1) (domain or fragment) | 0.29 | 
LiBRC1 free peptide |  | Kd [2]: 0.65 µM
LiBRC1.7 (C-terminal truncation of LiBRC1, residues up to Arg134 removed, GB1 fusion) (domain or fragment) | 0.39 | 
LiBRC1.8 (C-terminal truncation of LiBRC1, Glu133 also removed, GB1 fusion) (domain or fragment) | 2.09 | 
LiBRC1.10 (C-terminal truncation of LiBRC1, Val131 also removed, GB1 fusion) (domain or fragment) | 10.1 | 
LiBRC1.11 (C-terminal truncation of LiBRC1 up until Gln129, GB1 fusion) (domain or fragment) | 8.7 | 
LiBRC2.1 (LiBRC2 Gly154 to alanine, GB1 fusion) (domain or fragment) | 10.6 | 
LiRAD51^ATPase (Leishmania infantum RAD51 ATPase domain, residues 134–386) (domain or fragment) |  | Kd [3]: 0.165 µM
